Tested on: CC(=O)N[C@H]1[C@H](Oc2ccc([N+](=O)[O-])cc2)O[C@H](CO)[C@@H](O[C@@H]2O[C@H](CO)[C@@H](O)[C@H](O)[C@H]2NC(C)=O)[C@@H]1O
Assay: purified protein
Conditions: 20 mM sodium phosphate pH 7.4, 37 °C (standard assay), substrate 0.05–0.45 mM

Substance: LmChiA (Listeria monocytogenes EGD-e)
- Km: 1622 ± 13 µM
- kcat: 33.6 ± 1 s⁻¹
- kcat/Km: 20000 M⁻¹ s⁻¹

Substance: LmChiB (Listeria monocytogenes EGD-e)
- Km: 375 ± 27 µM
- kcat: 72.1 ± 1.4 s⁻¹
- kcat/Km: 190000 M⁻¹ s⁻¹
